B1: Azoarcus group I ribozyme (parent)
chain: GUGCCUUGCGCCGGGAAACCACGCAAGGGAUGGUGUCAAAUUCGGCGAAACCUAAGCGCCCGCCCGGGCGUAUGGCAACGCCGAGCCAAGCUUCGGCGCCUGCGCCGAUGAAGGUGUAGAGACUAGACGGCACCCACCUAAGGCAAACGCUAUGGUGAAGGCAUAGUCCAGGGAGUGGCGAAAGUCACACAAACCGG

Variants of: B1
Experiment: reverse-splicing fitness (ratio to wild type); higher = more active; in vitro selection; Mg2+ level not given
Outline: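 An in vitro group I ribozyme library with randomized positions was T7-transcribed and gel-purified. In triplicate, 10 pmol RNA in EPPS pH 7.5 was reacted with 50 pmoles of a 30-nt RNA substrate for 1 h at 37 °C across several added MgCl2 levels (1–48 mM), then stopped with EDTA. Products were reverse transcribed from a substrate-complementary primer, PCR-amplified and sequenced (HiSeq 4000). Fitness is a variant's read proportion after selection over that before, normalised to wild type.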

Variant | reverse-splicing fitness
GUGCCUUGCGCCGGGAAACCACGCAAGGGAUGGUGUCAAAUUCGGCGAAACCUAAGCGCCCGCCCGGGCGUAUGGCAACGCAGAGCCAAGCUUCGGCGCCUGCGCCGAUGAAGGUGUAGCGACUAGACGGCACCCACCUAAGGCUAACGCUAUGGUGAAGGCAUAGUCGAGGGAGUGGCGAAAGUCACACAAACCGG [C82A A120C A145U C169G] | 0.00932
GUGCCUUGCGCCGGGAAACCACGCAAGGGAUGGUGUCAAAUUCGGCGAAACCUAAGCGCCCGCCCGGGCGUAUGGCAACGCAGAGCCAAGCUUCGGCGCCUGCGCCGAUGAAGGUGUAGCGACUAGACGGCACCCACCUAAGGCUAACGCUAUGGUGAAGGCAUAGUCAAGGGAGUGGCGAAAGUCACACAAACCGG [C82A A120C A145U C169A] | 0.00925
GUGCCUUGCGCCGGGAAACCACGCAAGGGAUGGUGUCAAAUUCGGCGAAACCUAAGCGCCCGCCCGGGCGUAUGGCAACGCAGAGCCAAGCUUCGGCGCCUGCGCCGAUGAAGGUGUAGCGACUAGACGGCACCCACCUAAGGCUAACGUUAUGGUGAAGGCAUAGUCUAGGGAGUGGCGAAAGUCACACAAACCGG [C82A A120C A145U C150U C169U] | 0.0159
GUGCCUUGCGCCGGGAAACCACGCAAGGGAUGGUGUCAAAUUCGGCGAAACCUAAGCGCCCGCCCGGGCGUAUGGCAACGCAGAGCCAAGCUUCGGCGCCUGCGCCGAUGAAGGUGUAGCGACUAGACGGCACCCACCUAAGGCUAACGUUAUGGUGAAGGCAUAGUCCAGGGAGGGGCGAAAGUCACACAAACCGG [C82A A120C A145U C150U U176G] | 0.00864
GUGCCUUGCGCCGGGAAACCACGCAAGGGAUGGUGUCAAAUUCGGCGAAACCUAAGCGCCCGCCCGGGCGUAUGGCAACGCAGAGCCAAGCUUCGGCGCCUGCGCCGAUGAAGGUGUAGCGACUAGACGGCACCCACCUAAGGCUAACGUUAUGGUGAAGGCAUAGUCCAGGGAGAGGCGAAAGUCACACAAACCGG [C82A A120C A145U C150U U176A] | 0.0269
GUGCCUUGCGCCGGGAAACCACGCAAGGGAUGGUGUCAAAUUCGGCGAAACCUAAGCGCCCGCCCGGGCGUAUGGCAACGCAGAGCCAAGCUUCGGCGCCUGCGCCGAUGAAGGUGUAGCGACUAGACGGCACCCACCUAAGGCUAACGUUAUGGUGAAGGCAUAGUCCAGGGAGCGGCGAAAGUCACACAAACCGG [C82A A120C A145U C150U U176C] | 0.0422
GUGCCUUGCGCCGGGAAACCACGCAAGGGAUGGUGUCAAAUUCGGCGAAACCUAAGCGCCCGCCCGGGCGUAUGGCAACGCAGAGCCAAGCUUCGGCGCCUGCGCCGAUGAAGGUGUAGCGACUAGACGGCACCCACCUAAGGCUAACGCUAUGGUGAAGGCAUAGUCAAGGGAGAGGCGAAAGUCACACAAACCGG [C82A A120C A145U C169A U176A] | 0.0129
GUGCCUUGCGCCGGGAAACCACGCAAGGGAUGGUGUCAAAUUCGGCGAAACCUAAGCGCCCGCCCGGGCGUAUGGCAACGCAGAGCCAAGCUUCGGCGCCUGCGCCGAUGAAGGUGUAGCGACUAGACGGCACCCACCUAAGGCUAACGCUAUGGUGAAGGCAUAGUCAAGGGAGGGGCGAAAGUCACACAAACCGG [C82A A120C A145U C169A U176G] | 0.00493
GUGCCUUGCGCCGGGAAACCACGCAAGGGAUGGUGUCAAAUUCGGCGAAACCUAAGCGCCCGCCCGGGCGUAUGGCAACGCAGAGCCAAGCUUCGGCGCCUGCGCCGAUGAAGGUGUAGCGACUAGACGGCACCCACCUAAGGCUAACGCUAUGGUGAAGGCAUAGUCAAGGGAGCGGCGAAAGUCACACAAACCGG [C82A A120C A145U C169A U176C] | 0.0124
GUGCCUUGCGCCGGGAAACCACGCAAGGGAUGGUGUCAAAUUCGGCGAAACCUAAGCGCCCGCCCGGGCGUAUGGCAACGCAGAGCCAAGCUUCGGCGCCUGCGCCGAUGAAGGUGUAGCGACUAGACGGCACCCACCUAAGGCUAACGUUAUGGUGAAGGCAUAGUCUAGGGAGGGGCGAAAGUCACACAAACCGG [C82A A120C A145U C150U C169U U176G] | 0.00474
GUGCCUUGCGCCGGGAAACCACGCAAGGGAUGGUGUCAAAUUCGGCGAAACCUAAGCGCCCGCCCGGGCGUAUGGCAACGCAGAGCCAAGCUUCGGCGCCUGCGCCGAUGAAGGUGUAGCGACUAGACGGCACCCACCUAAGGCUAACGUUAUGGUGAAGGCAUAGUCUAGGGAGCGGCGAAAGUCACACAAACCGG [C82A A120C A145U C150U C169U U176C] | 0.0137
GUGCCUUGCGCCGGGAAACCACGCAAGGGAUGGUGUCAAAUUCGGCGAAACCUAAGCGCCCGCCCGGGCGUAUGGCAACGCAGAGCCAAGCUUCGGCGCCUGCGCCGAUGAAGGUGUAGCGACUAGACGGCACCCACCUAAGGCUAACGUUAUGGUGAAGGCAUAGUCUAGGGAGAGGCGAAAGUCACACAAACCGG [C82A A120C A145U C150U C169U U176A] | 0.0145
GUGCCUUGCGCCGGGAAACCACGCAAGGGAUGGUGUCAAAUUCGGCGAAACCUAAGCGCCCGCCCGGGCGUAUGGCAACGCAGAGCCAAGCUUCGGCGCCUGCGCCGAUGAAGGUGUAGCGACUAGACGGCACCCACCUAAGGCUAACGCUAUGGUGAAGGCAUAGUCGAGGGAGCGGCGAAAGUCACACAAACCGG [C82A A120C A145U C169G U176C] | 0.0191
GUGCCUUGCGCCGGGAAACCACGCAAGGGAUGGUGUCAAAUUCGGCGAAACCUAAGCGCCCGCCCGGGCGUAUGGCAACGCAGAGCCAAGCUUCGGCGCCUGCGCCGAUGAAGGUGUAGCGACUAGACGGCACCCACCUAAGGCUAACGCUAUGGUGAAGGCAUAGUCGAGGGAGAGGCGAAAGUCACACAAACCGG [C82A A120C A145U C169G U176A] | 0.0152
GUGCCUUGCGCCGGGAAACCACGCAAGGGAUGGUGUCAAAUUCGGCGAAACCUAAGCGCCCGCCCGGGCGUAUGGCAACGCAGAGCCAAGCUUCGGCGCCUGCGCCGAUGAAGGUGUAGCGACUAGACGGCACCCACCUAAGGCUAACGCUAUGGUGAAGGCAUAGUCGAGGGAGGGGCGAAAGUCACACAAACCGG [C82A A120C A145U C169G U176G] | 0.00482
